{
  "source": "paper PMC5004899",
  "about": "“Architecture of the caveolar coat complex” (Journal of Cell Science, 2016)",
  "biological_target": "the molecule itself",
  "assay": "cross-linking; DSP cross-linking in live HeLa cells; purified 80S-CCC; partial reduction of DSP crosslinks by titration of DTT; western blots",
  "data": [
    {"protein": "cavin-1 (natural protein, human (endogenous in HeLa), UniProt Q6NZI2-1 1-390, looked up, DSP-modified lysine residues (seven of 11 lysines in the HR1 domain, six of 17 in the HR2 domain; marked in Fig. 1D), human cavin-1 (PTRF), NP_036364.2; HR1 domain amino acids 49-163, HR2 domain amino acids 210-300; Detected with rabbit anti-PTRF (Abcam ab48824); also called PTRF; source: endogenous, HeLa lysate (cells DSP-cross-linked alive)) MEDPTLYIVERPLPGYPDAEAPEPSSAGAQAAEEPSGAGSEELIKSDQVNGVLVLSLLDKIIGAVDQIQLTQAQLEERQAEMEGAVQSIQGELSKLGKAHATTSNTVSKLLEKVRKVSVNVKTVRGSLERQAGQIKKLEVNEAELLRRRNFKVMIYQDEVKLPAKLSISKSLKESEALPEKEGEELGEGERPEEDAAALELSSDEAVEVEEVIEESRAERIKRSGLRRVDDFKKAFSKEKMEKTKVRTRENLEKTRLKTKENLEKTRHTLEKRMNKLGTRLVPAERREKLKTSRDKLRKSFTPDHVVYARSKTAVYKVPPFTFHVKKIREGQVEVLKATEMVEVGADDDEGGAERGEAGDLRRGSSPDVHALLEITEESDAVLVDKSDSD", "values": [
      {"measurement": "stoichiometry N", "value": 3}
    ]}
  ]
}
